Measured values published in US5514538A, “Bicarbonate assay and phosphoenolpyruvate carboxylase enzyme from hyphomicrobium” (Genzyme Limited, priority 1990, dated 1996).
Structures can show the parent of a compound that is named as a salt. Where two headings read alike, the source gives them in different places.

Key:
[1] = test system: PEPC; experiment: Effect of calcium and Mg^2+ on PEPC activity; assay type: biochemical, Hyphomicrobium
[2] = test system: Hyphomicrobium PEPC; conditions: pH 8.0, 167 mM Tricine buffer + 1 mM MgCl2
Method: The effect of bicarbonate on the activity of PEPC was evaluated at pH 8.0 in 167 mM Tricine buffer+1 mM MgCl2.

[3] = test system: Hyphomicrobium PEPC; experiment: Km of Hyphomicrobium PEPC with phosphoenol pyruvate salts; assay type: biochemical; conditions: pH 7.0 and 25° C.
Method: The Km's of Hyphomicrobium PEPC were checked with both sodium bicarbonate and phosphoenol pyruvate as substrates.
The result is 0.91 mM for the tricyclohexylammonium salt.

[4] = Specific activity of PEPC (malate dehydrogenase/NADH-coupled assay, A340); assay type: biochemical
Method: (a) Lysis is performed with a solution of Triton X-100, a non-ionic detergent. It is added to resuspended cells (10% w/v) at 1% v/v. Lysis usually takes about 1 to 1.5 hours at 15° to 20° C. Once lysis is complete, the cell debris is removed by centrifugation with the aid of streptomycin sulphate.
(§1) (b) Column chromatography involves the use of a strong anion exchanger such as Fractogel-TMAE, DEAE sepharose, Q sepharose, DE 52 or QA 52.
(§2) For a large volume of enzyme solution, the absorption can be is carried out as a batch up-take. The gel also has a batch wash prior to packing into the column for a gradient elution.
(§3) The gradient is of increasing salt concentration. The active fractions are pooled to give a specific activity of >30 U/mg but some fractions contain enzyme of 60 U/mg protein.
Lyophilised PEPC powder is obtained, having the following characteristics:
A 167 mM Tricine. HCl buffer, pH 8.0, containing 16.7 mM MgCl2
B 20.7 mM sodium bicarbonate in Reagent A
C 217 mM phosphoenolpyruvate in Reagent A
D 10 mM NADH solution, the concentration of which is checked in the following way:
1 Dispense 0.98 ml of Reagent A into a cuvette and zero a spectrophotometer set at 340 nm with this cuvette
2 Add 0.02 ml of Reagent D to this cuvette and mix thoroughly
E 700 U/ml malate dehydrogenase
1 Adjust spectrophotometer to 340 nm and 25° C.
2 Prepare a reagent cocktail as follows:
Into a 50 ml beaker dispense; 46.0 ml Reagent B 1.0 ml Reagent C
This cocktail is stable for 8 hr when stored at 4° C.
3 Dispense 0.94 ml of the reagent cocktail into a cuvette together with 0.02 ml of Reagent D, and 0.02 ml of Reagent E
Incubate the cuvette in the spectrophotometer at 25° C. to attain temperature equilibration and then establish background rate, if any
4 Dilute the enzyme to approximately 1.5 U/ml in reagent A, and initiate the reaction by adding 0.02 ml of this solution to the cuvette
5 Calculate the change in absorbance (ΔA/rain) over the linear portion of the reaction [formula]

[5] = Stability of reconstituted enzyme with azide; assay type: physicochemical
Method: The enzyme was stored in assay buffer (167 mM Tricine/HCl with 15 mM MgCl2, pH 8.0).

[6] = pH stability of enzyme solutions stored at 25° C.; assay type: physicochemical
Method: For pH 6.0, 8.0 and 9.0, 150 mM Tricine+1 mM MgCl2 was used. For pH 7.0 150 mM bis-tris+1 mM MgCl2 was chosen. Solutions were stored at 25° C.

[7] = Effect of pH on the activity of PEPC; assay type: biochemical
Method: The effect of pH on the activity of PEPC was evaluated. Lyophilised enzyme was resuspended (10 mg/ml)) in 167 mM Tricine pH 8.0 (+1 mM MgCl2) and diluted to a concentration of 1 u/ml. The enzyme was then assayed in the following buffer systems. At pH 6.0, 8.0 and 9.0 Tricine (150 mM) was used. At pH 6.5 and 7.0 bis-tris (150 mM) was used.

[8] = lyophilised
Method: Stability trials have been conducted on lyophilised enzyme, at 4° C., 25° C. and 37° C.
All recoveries are based on specific activity to rule out weighing errors.

[9] = isolated enzyme
[10] = Effect of pH on the enzyme activity (buffers and pH changed); assay type: biochemical
Excerpt: The effect of pH on the enzyme activity was checked by changing the buffers as well as pH values. Once again, at pH 7 Bis-tris was used.

[11] = Storage of enzyme on anion exchange gel: recovery and pool specific activity; assay type: physicochemical
Method: as §1, §2, §3
If stored for longer, then the recoveries begin to decrease.

[12] = pH 7
[13] = Effect of temperature on the activity of PEPC; assay type: biochemical; conditions: 167 mM tricine pH 7.0, 1 mM MgCl2
Method: The effect of temperature on the activity of PEPC was evaluated. Lyophilised enzyme was resuspended in 167 mM tricine buffer pH 7.0 containing 1 mM MgCl2 at a concentration of 300 u/l. The enzyme was then assayed at the desired temperature using the recommended reagents.

[14] = after anion exchange gradient elution

[Ca+2] [calcium]
effect on PEPC activity ([1]; low concentrations): inhibitory effect

O=C(O)O [bicarbonate, sodium bicarbonate]
Km [2]: 1300 µM
Km ([2]; read-out: Km (probable, without dissolved carbon dioxide from the atmosphere)): < 1000 µM

C=C(OP(=O)(O)O)C(=O)O [tricyclohexylammonium salt, phosphoenol pyruvate]
Km [3]: 910 µM
Km, comparison of PEP salts [3]: very similar

phosphoenolpyruvate carboxylase [PEPC]
specific activity of pooled active fractions [4, 14]: > 30 U/mg
specific activity of some fractions [4, 14]: 60 U/mg protein
Powder activity ([4]; lyophilised PEPC powder): > 10 U/mg
Specific activity ([4]; lyophilised PEPC powder): > 25 U/mg Protein
% activity recovered ([5]; pH 8.0, 4 days, 4° C.): 94%
% activity recovered ([5]; pH 8.0, 4 days, 25° C.): 104%
% activity recovered ([5]; pH 8.0, 4 days, 37° C.): 2%
% activity recovered ([5]; pH 8.0, 7 days, 4° C.): 96%
% activity recovered ([5]; pH 8.0, 7 days, 25° C.): 92%
% activity recovered ([5]; pH 8.0, 7 days, 37° C.): 0%
% activity recovered ([5]; pH 8.0, 14 days, 4° C.): 94%
% activity recovered ([5]; pH 8.0, 14 days, 25° C.): 93%
% activity recovered ([5]; pH 8.0, 30 days, 4° C.): 100%
% activity recovered ([5]; pH 8.0, 30 days, 25° C.): 86%
% activity recovered ([5]; pH 8.0, 42 days, 4° C.): 105%
% activity recovered ([5]; pH 8.0, 42 days, 25° C.): 85%
% activity recovered ([5]; pH 8.0, 63 days, 4° C.): 105%
% activity recovered ([5]; pH 8.0, 63 days, 25° C.): 66%
% activity recovered ([6]; pH 6, 7 days, Tricine): 69%
% activity recovered ([6]; pH 6, 12 days, Tricine): 45.5%
% activity recovered ([6]; pH 7, 7 days, bis-tris): 99%
% activity recovered ([6]; pH 7, 12 days, bis-tris): 78.2%
% activity recovered ([6]; pH 8, 7 days, Tricine): 81.8%
% activity recovered ([6]; pH 8, 12 days, Tricine): 67.3%
% activity recovered ([6]; pH 9, 7 days, Tricine): 78.2%
% activity recovered ([6]; pH 9, 12 days, Tricine): 56.4%
relative activity ([7]; pH 6.0, Tricine (150 mM)): approximately 70%
relative activity ([7]; pH 6.5, bis-tris (150 mM)): ~85%
relative activity ([7]; pH 7.0, bis-tris (150 mM)): ~115%
relative activity ([7]; pH 8.0, Tricine (150 mM)): ~100%
relative activity ([7]; pH 9.0, Tricine (150 mM)): ~90%
% activity recovered ([8]; 0 days, 4° C.): 100%
% activity recovered ([8]; 0 days, 25° C.): 100%
% activity recovered ([8]; 0 days, 37° C.): 100%
% activity recovered ([8]; 3 days, 25° C.): 95%
% activity recovered ([8]; 3 days, 37° C.): 97%
% activity recovered ([8]; 7 days, 4° C.): 83%
% activity recovered ([8]; 7 days, 25° C.): 83%
% activity recovered ([8]; 7 days, 37° C.): 87%
% activity recovered ([8]; 10 days, 25° C.): 94%
% activity recovered ([8]; 10 days, 37° C.): 91%
% activity recovered ([8]; 18 days, 4° C.): 92%
% activity recovered ([8]; 18 days, 25° C.): 88%
% activity recovered ([8]; 18 days, 37° C.): 90%
% activity recovered ([8]; 24 days, 25° C.): 90%
% activity recovered ([8]; 24 days, 37° C.): 87%
% activity recovered ([8]; 50 days, 4° C.): 114%
% activity recovered ([8]; 77 days, 4° C.): 110%
pH profile [9]: broad pH profile
% activity recovered ([10]; pH 6): 65.5%
% activity recovered ([10]; pH 6.5): 74.5%
% activity recovered ([10]; pH 7.0, Bis-tris): 100%
% activity recovered ([10]; pH 8.0): 88.2%
% activity recovered ([10]; pH 9.0): 74.5%
Pool S/A ([11]; 0 days stored on gel): 37.4 U/mg
Total recovery ([11]; 0 days stored on gel): 91%
Pool S/A ([11]; 2 days stored on gel): 33.0 U/mg
Total recovery ([11]; 2 days stored on gel): 85%
Pool S/A ([11]; 4 days stored on gel): 28.1 U/mg
Total recovery ([11]; 4 days stored on gel): 76%
Pool S/A ([11]; 8 days stored on gel): 26.9 U/mg
Total recovery ([11]; 8 days stored on gel): 60%
loss of activity on gel ([11]; held on the gel overnight): no loss of activity
stability and activity [12]: better stability and activity
relative activity ([13]; 20° C.): approximately 10%
relative activity ([13]; 50° C.): 100%
relative activity ([13]; 55° C.): approximately 10%

[Mg+2] [Mg^2+]
activation of the enzyme [1]: only effective activator of the enzyme
activation, chloride vs sulphate ([1]; chloride compound compared with sulphate): works better as the chloride compound than as the sulphate
